Test results: article PMC10354024, “Conformational trajectory of allosteric gating of the human cone photoreceptor cyclic nucleotide-gated channel” (Nature Communications, 2023)

T1: human CNGB3, full-length (human, UniProt Q9NQW8-1 1-809, N339 glycosylation site)
T1 construct: human cone photoreceptor cyclic nucleotide-gated channel subunit CNGB3, NCBI NP_061971.3, full length; modelled residues L206 to R643; One copy of this subunit stands with three CNGA3 in the channel tetramer; Cloned in the vector pEZT-BM (Addgene #74099); source: HEK 293S GnTi- cells (BacMam), co-infected with CNGA3 virus, purified (amylose resin, StrepTrap, Superose 6) in GDN
T1 sequence (looked up): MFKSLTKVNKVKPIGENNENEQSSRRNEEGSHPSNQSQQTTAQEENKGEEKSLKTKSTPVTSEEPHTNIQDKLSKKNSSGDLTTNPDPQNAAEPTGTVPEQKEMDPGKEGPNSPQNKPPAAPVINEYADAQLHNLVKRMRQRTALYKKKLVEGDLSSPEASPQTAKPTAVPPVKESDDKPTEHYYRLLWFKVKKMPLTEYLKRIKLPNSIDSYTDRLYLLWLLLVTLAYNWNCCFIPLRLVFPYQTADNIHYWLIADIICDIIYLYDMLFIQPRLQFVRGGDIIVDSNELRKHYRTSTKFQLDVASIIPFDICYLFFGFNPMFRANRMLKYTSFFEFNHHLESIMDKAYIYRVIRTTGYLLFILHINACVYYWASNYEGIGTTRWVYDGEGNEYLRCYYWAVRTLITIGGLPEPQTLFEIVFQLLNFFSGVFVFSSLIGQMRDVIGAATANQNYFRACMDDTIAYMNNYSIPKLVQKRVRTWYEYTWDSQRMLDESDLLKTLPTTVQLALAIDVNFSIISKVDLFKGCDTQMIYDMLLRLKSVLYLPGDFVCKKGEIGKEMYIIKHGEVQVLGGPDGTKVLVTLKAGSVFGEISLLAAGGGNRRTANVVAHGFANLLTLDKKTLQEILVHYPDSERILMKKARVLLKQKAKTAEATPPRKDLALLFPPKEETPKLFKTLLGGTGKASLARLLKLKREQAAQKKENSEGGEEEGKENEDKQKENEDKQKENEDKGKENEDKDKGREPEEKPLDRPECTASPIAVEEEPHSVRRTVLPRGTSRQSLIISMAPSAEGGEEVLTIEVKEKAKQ

T2: truncated human CNGB3 (amino acids 79-809) (human, UniProt Q9NQW8-1 79-809)
T2 construct: human CNGB3, NCBI NP_061971.3, amino acids 79-809 (amino acids 1-78 removed); Expressed as trunCNGA3-P2A-trunCNGB3 from one pEZT-BM vector; a residue of the P2A linker may precede the FLAG tag (surmised); also called truncated CNGB3; trunCNGB3
T2 sequence (looked up): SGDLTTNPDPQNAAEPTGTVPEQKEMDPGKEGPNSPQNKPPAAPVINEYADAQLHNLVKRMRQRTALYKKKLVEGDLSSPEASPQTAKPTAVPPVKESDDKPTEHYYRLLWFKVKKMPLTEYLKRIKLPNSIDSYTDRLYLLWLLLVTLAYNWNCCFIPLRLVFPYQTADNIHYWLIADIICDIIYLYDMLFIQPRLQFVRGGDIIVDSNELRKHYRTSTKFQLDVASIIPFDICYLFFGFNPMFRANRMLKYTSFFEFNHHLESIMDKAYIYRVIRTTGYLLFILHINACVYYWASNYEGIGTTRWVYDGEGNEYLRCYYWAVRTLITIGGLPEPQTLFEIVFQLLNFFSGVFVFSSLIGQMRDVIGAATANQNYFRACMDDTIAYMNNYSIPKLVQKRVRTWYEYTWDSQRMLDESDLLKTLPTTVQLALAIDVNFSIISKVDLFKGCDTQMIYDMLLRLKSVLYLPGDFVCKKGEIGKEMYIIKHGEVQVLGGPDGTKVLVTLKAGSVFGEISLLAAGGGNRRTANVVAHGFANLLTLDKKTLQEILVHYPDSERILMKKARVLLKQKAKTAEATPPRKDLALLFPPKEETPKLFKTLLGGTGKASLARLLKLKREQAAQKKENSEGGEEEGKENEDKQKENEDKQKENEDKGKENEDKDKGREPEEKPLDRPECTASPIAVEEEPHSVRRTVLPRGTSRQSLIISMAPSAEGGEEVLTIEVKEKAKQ


Key:
[1] = biological target: the molecule itself; assay: cryo-EM structure; full-length CNGA3/CNGB3 co-expressed and co-purified, in 0.02% GDN, 50 mM HEPES-Na pH 8.58, 150 mM NaCl, 0.1 mM TCEP, 2 mM EGTA, 2 mM cGMP; three states (closed, intermediate 1, intermediate 2), C1 symmetry
human CNGB3, full-length = biological target: T1, human CNGB3, full-length; assay: as above; details: both partners purified
[2] = biological target: the molecule itself; assay: cryo-EM structure; truncated CNGA3/CNGB3 co-expressed (P2A) and co-purified, in POPG/POPC (1:1) nanodiscs with MSP2N2, 50 mM HEPES-Na pH 8.58, 150 mM NaCl, 0.1 mM TCEP, 2 mM EGTA, 4 mM cGMP; five states (closed, intermediate 1, intermediate 2, pre-open, open), C1 symmetry
[3] = biological target: T2, truncated human CNGB3 (amino acids …); assay: as above; details: both partners purified

| Binder | binding result [1] | stoichiometry N (human CNGB3, full-length) [A3 per B3] | binding result [2] | binding result [3] |
| --- | --- | --- | --- | --- |
| human CNGA3, full-length (natural protein, UniProt Q16281-1 1-694, looked up, human cone photoreceptor cyclic nucleotide-gated channel subunit CNGA3, NCBI NP_001289.1, full length; modelled residues about A158-I159 to D609-L614; Three copies of this subunit stand with one CNGB3 in the channel tetramer; MBP was cut off with P3C protease; residues of the P3C site may remain at the N-terminus; Cloned in the vector pEZT-BM (Addgene #74099); also called CNGA3L; A3L; source: HEK …) MAKINTQYSHPSRTHLKVKTSDRDLNRAENGLSRAHSSSEETSSVLQPGIAMETRGLADSGQGSFTGQGIARLSRLIFLLRRWAARHVHHQDQGPDSFPDRFRGAELKEVSSQESNAQANVGSQEPADRGRSAWPLAKCNTNTSNNTEEEKKTKKKDAIVVDPSSNLYYRWLTAIALPVFYNWYLLICRACFDELQSEYLMLWLVLDYSADVLYVLDVLVRARTGFLEQGLMVSDTNRLWQHYKTTTQFKLDVLSLVPTDLAYLKVGTNYPEVRFNRLLKFSRLFEFFDRTETRTNYPNMFRIGNLVLYILIIIHWNACIYFAISKFIGFGTDSWVYPNISIPEHGRLSRKYIYSLYWSTLTLTTIGETPPPVKDEEYLFVVVDFLVGVLIFATIVGNVGSMISNMNASRAEFQAKIDSIKQYMQFRKVTKDLETRVIRWFDYLWANKKTVDEKEVLKSLPDKLKAEIAINVHLDTLKKVRIFQDCEAGLLVELVLKLRPTVFSPGDYICKKGDIGKEMYIINEGKLAVVADDGVTQFVVLSDGSYFGEISILNIKGSKSGNRRTANIRSIGYSDLFCLSKDDLMEALTEYPEAKKALEEKGRQILMKDNLIDEELARAGADPKDLEEKVEQLGSSLDTLQTRFARLLAEYNATQMKMKQRLSQLESQVKGGGDKPLADGEVPGDATKTEDKQQ | binds | 3 |  |  |
| truncated human CNGA3 (amino acids 152-694) (domain or fragment, UniProt Q16281-1 152-694, looked up, human CNGA3, NCBI NP_001289.1, amino acids 152-694 (amino acids 1-151 removed); Expressed as trunCNGA3-P2A-trunCNGB3 from one pEZT-BM vector; also called truncated CNGA3; trunCNGA3) KTKKKDAIVVDPSSNLYYRWLTAIALPVFYNWYLLICRACFDELQSEYLMLWLVLDYSADVLYVLDVLVRARTGFLEQGLMVSDTNRLWQHYKTTTQFKLDVLSLVPTDLAYLKVGTNYPEVRFNRLLKFSRLFEFFDRTETRTNYPNMFRIGNLVLYILIIIHWNACIYFAISKFIGFGTDSWVYPNISIPEHGRLSRKYIYSLYWSTLTLTTIGETPPPVKDEEYLFVVVDFLVGVLIFATIVGNVGSMISNMNASRAEFQAKIDSIKQYMQFRKVTKDLETRVIRWFDYLWANKKTVDEKEVLKSLPDKLKAEIAINVHLDTLKKVRIFQDCEAGLLVELVLKLRPTVFSPGDYICKKGDIGKEMYIINEGKLAVVADDGVTQFVVLSDGSYFGEISILNIKGSKSGNRRTANIRSIGYSDLFCLSKDDLMEALTEYPEAKKALEEKGRQILMKDNLIDEELARAGADPKDLEEKVEQLGSSLDTLQTRFARLLAEYNATQMKMKQRLSQLESQVKGGGDKPLADGEVPGDATKTEDKQQ |  |  | binds | binds |
